Laboratory results: patent publication US20190248863A1
Positions of bridges follow the written chain, without caps; N, C: chain ends. Chains are numbered I, II in the order given. No end group written: not given here.

B1: RLX-A-AQ1-20KPEG (ligand)
chain 1: XLYSALANKCCHVGCTKRSLARFC
chain 2: ASWMEEVIKLCGRELVRAQIAICGMSTWS
modifications: here or on the partner: para-acetylphenylalanine (pAcF, X) at position 1 of the A chain, linked to a 20 kDa PEG via an oxime linkage
B2: wild-type human relaxin 2 (WT-RLX) (ligand)
chain 1: QLYSALANKCCHVGCTKRSLARFC
chain 2: DSWMEEVIKLCGRELVRAQIAICGMSTWS
modifications: disulfide I:10-I:15, I:11-II:11, I:24-II:23

Biological target: human RXFP2 (human), Q8WXD0
Test: cell-based or functional assay

human RXFP2 (human), Q8WXD0, sequence (Q8WXD0 whole entry): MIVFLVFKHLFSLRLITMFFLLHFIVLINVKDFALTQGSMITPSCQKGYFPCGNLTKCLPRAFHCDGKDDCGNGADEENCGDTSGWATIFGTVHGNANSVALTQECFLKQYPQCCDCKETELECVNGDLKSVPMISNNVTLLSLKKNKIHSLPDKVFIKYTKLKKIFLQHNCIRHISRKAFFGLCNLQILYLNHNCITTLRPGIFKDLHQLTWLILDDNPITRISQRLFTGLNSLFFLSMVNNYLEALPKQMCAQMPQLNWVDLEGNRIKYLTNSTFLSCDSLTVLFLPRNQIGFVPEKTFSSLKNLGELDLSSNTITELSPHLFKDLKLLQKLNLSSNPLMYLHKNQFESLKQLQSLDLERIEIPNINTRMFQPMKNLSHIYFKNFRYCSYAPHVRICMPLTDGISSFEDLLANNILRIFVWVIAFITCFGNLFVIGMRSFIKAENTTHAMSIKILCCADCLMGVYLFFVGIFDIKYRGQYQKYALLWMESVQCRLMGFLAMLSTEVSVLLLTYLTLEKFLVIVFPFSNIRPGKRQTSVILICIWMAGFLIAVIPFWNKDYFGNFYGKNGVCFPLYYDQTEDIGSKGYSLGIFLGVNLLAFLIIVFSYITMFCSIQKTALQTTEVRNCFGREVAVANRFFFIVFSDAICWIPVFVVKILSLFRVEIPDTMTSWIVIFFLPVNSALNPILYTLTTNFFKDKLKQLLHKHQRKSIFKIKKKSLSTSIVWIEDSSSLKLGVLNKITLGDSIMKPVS

Binder	Maximal cAMP stimulation by RLX-A-AQ1-20KPEG compared to WT-RLX (percent), AVG, hRXFP2	Potency Ratio (RLX-A-AQ1-20KPEG/WT-RLX), cAMP assay	RLX-A-AQ1-20KPEG Potency Ratio (hRXFP1-1.0), cAMP assay	cAMP Assay EC50 (nM), human RXFP2/CHO-K1 cells	fold less potent than INSL3 (cAMP assay EC50, human RXFP2/CHO-K1 cells)
B1	99%	32 fold	54 fold	174 nM	
B2				5.5 nM	10 fold
